This test deals with T1, SULU1-coiled-coil2 (GST fusion of human SULU1 amino acids 752-898) (human, UniProt Q5R4F3 752-898 (Pongo abelii entry)).
T1 construct: Bait made as a C-terminal fusion to GST, expressed in E. coli and immobilised for T7 phage display selection; also called Construct 1; SULU1 Coiled-coil2 bait; not shown: glutathione S-transferase (GST) of the pGEX-4T vector
T1 sequence: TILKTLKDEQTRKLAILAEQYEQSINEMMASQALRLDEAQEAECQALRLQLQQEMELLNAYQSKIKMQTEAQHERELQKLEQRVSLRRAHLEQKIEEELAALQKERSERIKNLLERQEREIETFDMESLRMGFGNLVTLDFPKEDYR
The test can be described thus: T7 phage display, H441 cDNA library, immobilised GST-fusion bait. Here is the method:
Aliquots of refreshed libraries (10^10–10^12 pfu) supplemented with PanMix and a cocktail of […] inhibitors (Sigma P-8465) were incubated for 1–2 hrs at room temperature with the immobilized baits. Unbound phage was extensively washed (at least 4 times) with wash buffer.
Individual plaques were picked into 25 µL of 10 mM EDTA and the phage was disrupted by heating at 70° C. for 10 min. 2 µL of the disrupted phage were added to 50 µL PCR reaction mix. The insert DNA was amplified by 35 rounds of thermal cycling (94° C., 50 sec; 50° C., 1 min; 72° C., 1 min).

B1: GEK2 coiled-coil domain fragment (residues 677-820 of SEQ ID NO:26) displayed on T7 phage (other)
chain: KESMKQKMEEHTQKKQLLDRDFVAKQKEDLELAMKRLTTDNRREICDKERECLMKKQELLRDREAALWEMEEHQLQERHQLVKQQLKDQYFLQRHELLRKHEKEREQMQRYNQRMIEQLKVRQQQEKARLPKIQRSEGKTRMAM
notes: also called GEK2 CC1; GEK2 cc dom; not shown: T7 phage coat protein of the T7Select1-1b vector
Turning to B1, the binding result is reported as “binds”.
